According to patent US20260265374A1 (JW THERAPEUTICS R AND D SHANGHAI, published 2026):

T1: Soluble CD19 protein (amino acids 20-291) (UniProt P15391 20-291)
T1 construct: range 20-291; Analyte in SPR, 300 nM to 4.69 nM; also called cognate ligand CD19
T1 sequence (looked up): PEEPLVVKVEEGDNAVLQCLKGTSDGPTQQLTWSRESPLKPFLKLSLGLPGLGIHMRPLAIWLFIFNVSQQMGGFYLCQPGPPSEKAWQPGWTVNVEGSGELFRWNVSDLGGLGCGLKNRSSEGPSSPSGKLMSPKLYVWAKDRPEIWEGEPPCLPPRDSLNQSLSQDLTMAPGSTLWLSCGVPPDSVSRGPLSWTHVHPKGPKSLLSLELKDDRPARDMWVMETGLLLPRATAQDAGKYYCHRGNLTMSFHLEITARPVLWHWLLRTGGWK


Target: T1, Soluble CD19 protein (amino acids …)
Assay: SPR (Biacore T200), antibody captured on Protein A chip, soluble CD19 as analyte
Method: All SPR experiments were performed on a Biacore T200 (PCytiva) with HBS-EP as running buffer. The antibodies were captured by Protein A chip (LOT #10309880, Cytiva). Soluble CD19 protein (amino acids 20-291) was used as the analyte at concentrations ranging from 300 nM to 4.69 nM through the flow cells for 120 seconds followed by dissociation analysis for 300 seconds. Association rates (Kon), dissociation rates (Koff) and the constant Ka (Kon/Koff) were fitted to the results.

Row | Binder | binding result
1 | Antibody comprising scFv-2 fused with human IgG1 Fc fragment (Fc fusion, scFv fused with human IgG1 Fc; not shown: human IgG1 Fc fragment) DIQMTQTTSSLSASLGDRVTISCRASQDISKYLNWYQQRPDGTVKLLIYHTSRLHSGVPSRFSGSGSGTDYSLTISNLEPEDIATYFCQQGNTLPYTFGGGTKLEITGSTSGSGKPGSGEGSTKGEVKLQESGPGLVAPSQSLSVTCTVSGVSLPDYGVSWIRQPPRKGLEWLGVIWGSETTYYNSALKSRLTIIKDNSKSQVFLKMNSLQTDDTAIYYCAKHYYYGGSYAMDYWGQGTSVTVSS | binds
2 | Antibody comprising scFv-1 fused with human IgG1 Fc fragment (Fc fusion, scFv fused with human IgG1 Fc; not shown: human IgG1 Fc fragment) DIQMTQTTSSLSASLGDRVTISCRASQDISKYLNWYQQRPDGTVKLLIYHTSRLHSGVPSRFSGSGSGTDYSLTISNLEPEDIATYFCQQGNTLPYTFGSGTRLEITGSTSGSGKPGSGEGSTKGEVKLQESGPGLVAPSQSLSVTCTVSGVSLPDYGVSWIRQPPRKGLEWLGVIWGSETTYYNSALKSRLTIIKDNSKSQVFLKMNSLQTDDTAIYYCAKHYYYGGSYAMDYWGQGTSVTVSS | binds
